Experimental data as given in the DeepSol protein solubility set.

assay: soluble on expression in E. coli; label from the status in PepcDB or PDB records

| Sequence | soluble on expression in E. coli |
| --- | --- |
| SLEHFDDKSQLKRNGFYFSYNVDKENIEHWISAILFQVLKDKEDIVILSLGVDTLVGDSLGPLVGSILKRNGIPNVYGTLDRTVNASNIIKILDEIHERFKNPYILVVDAAVTAENNINDIVLRNGGFTPGFGVYRQLPTVGDFSLVGVVNKEDEREHNLIELLKKCRFDEVLKLARIISKILVLTFARMNKGDK | soluble |
| MQVNRLPFFTNHFFDTYLLISEDTPVGSSVTQLLARDMDNDPLVFGVSGEEASRFFAVEPDTGVVWLRQPLDRETKSEFTVEFSVSDHQGVITRKVNIQVGGVNDNAPTFHNQPYSVRIPENTPVGTPIFIVNATDPDLGAGGSVLYSFQPPSPFFAIDSARGIVTVIQELDYEVTQAYQLTVNATDQDKTRPLSTLANLAIIITDLEHHHHHH | soluble |
| LPDLRRRVLSGPLFAWFQKVLPPMSDTEREAIEAGTVWWDGELFSGRPDWQKLLDYPKAQLTEEEQAFVDGPTEELCAMVSDWDIGQRMDLPEEAWAFIKQHGFFGLIIPKEYGGKGFSAFAHSQVVMKLATRSGDLASTVMVPNSLGPAELLLHYGTDEQRQRYLPSLAKGDDIPCFALTGPYAGSDAGGMTDVGIVCKGEWEGREVLGLRLTWEKRYITLGPVATLLGLAFKCHDPDHLLGDEEDLGITLALIPTDTPGVEIGRRHVPLGAAFMNGPNSGKDVFVPLEYIIGGQEMIGKGWMMLMNCLSVGRSISLPAVGTSAGKASSYVSGRYAQVREQFNVPIAAFEGIQEALARIGGNAWLMDSARILTANAVDLGEKPSVLSAILKYHLTERGRECIAHAMDIHGGKGIIMGPNNYLGRSWQGAPIFITVEGANILSRNLMIFGQGAIRCHPYVLKEMELAQREDKDQAAREFDA | not soluble |
| MTPEIKVKSMRSVGTQVDVQCITYGLAGFDSVFKHCGVFSGEEHNVSSIWKGPVRMVERKTETESFEISQYGETVFKPSLQLLVGTSDEIAFSLLRHVFSKMDIIELRHYLQVLGFEKTFNLMYNLGEEFIEGEIPVDERILLDEIEALESFTVSNMTIEEEIEARRVERLALKFVEEMYNPDTENDEQIALLLHSEMNDENGDNDLIEEDYFNIANLEESFPGTNKKVVREAYNIAGRKVDFTREILLSNGEVENTYAVKLKPKPTWSKKVASSPSPLRLSLPKKSKKEEENHFLKKRSGRHSQLEEIQLLAIRTRQKIEADRITSSNSMAAAKYRQLIIVDRASRMKIEKSSEVKELDRKIREAHNNPWFLDLHYMSVDGAVKLVKEAIEAVKYHLKAARNLDRRITVVTGSGNNSKCGAKIKPQVLAMLQHNDYNYELVNDGCIRFKV | not soluble |
| MAEICLITGTPGSGKTLKMVSMMANDEMFKPDENGIRRKVFTNIKGLKIPHTYIETDAKKLPKSTDEQLSAHDMYEWIKKPENIGSIVIVDEAQDVWPARSAGSKIPENVQWLNTHRHQGIDIFVLTQGPKLLDQNLRTLVRKHYHIASNKMGMRTLLEWKICADDPVKMASSAFSSIYTLDKKVYDLYESAEVHT | soluble |
| SNPFAHLAEPLDPVQPGKKFFNLNKLEDSRYGRLPFSIRVLLEAAIRNCDEFLVKKQDIENILHWNVTQHKNIEVPFKPARVILQDFTGVPAVVDFAAMRDAVKKLGGDPEKINPVCPADLVIDHSIQVDFNRRADSLQKNQDLEFERNRERFEFLKWGSQAFHNMRIIPPGSGIIHQVNLEYLARVVFDQDGYYYPDSLVGTDSHTTMIDGLGILGWGVGGIEAEAVMLGQPISMVLPQVIGYRLMGKPHPLVTSTDIVLTITKHLRQVGVVGKFVEFFGPGVAQLSIADRATIANMCPEYGATAAFFPVDEVSITYLVQTGRDEEKLKYIKKYLQAVGMFRDFNDPSQDPDFTQVVELDLKTVVPCCSGPKRPQDKVAVSDMKKDFESCLGAKQGFKGFQVAPEHHNDHKTFIYDNTEFTLAHGSVVIAAITSCTNTSNPSVMLGAGLLAKKAVDAGLNVMPYIKTSLSPGSGVVTYYLQESGVMPYLSQLGFDVVGYGCMTCIGNSGPLPEPVVEAITQGDLVAVGVLSGNRNFEGRVHPNTRANYLASPPLVIAYAIAGTIRIDFEKEPLGVNAKGQQVFLKDIWPTRDEIQAVERQYVIPGMFKEVYQKIETVNESWNALATPSDKLFFWNSKSTYIKSPPFFENLTLDLQPPKSIVDAYVLLNLGDSVTTDHISPAGNIARNSPAARYLTNRGLTPREFNSYGSRRGNDAVMARGTFANIRLLNRFLNKQAPQTIHLPSGEILDVFDAAERYQQAGLPLIVLAGKEYGAGSSRDWAAKGPFLLGIKAVLAESYERIHRSNLVGMGVIPLEYLPGENADALGLTGQERYTIIIPENLKPQMKVQVKLDTGKTFQAVMRFDTDVELTYFLNGGILNYMIRKMAK | soluble |
| MGSDKIHHHHHHMPEFNYQKAFPLKKDPTPYKLISTDYVSTIEVDGRKILKIDPKALELVAEKALADVSFYLRSSHLEKLAKIIKDPEATDNDRFVAYTLLQNASTAGEGKLPSCQDTGTAIVMGKKGENVWTGANDEEALSKGIYNTYQEKNLRYSQVVPITMFEEKNSGTNLPAQIDIYAEQGNEYKFLFMAKGGGSANKTYLYQQTKALLNENSLAEFVKNKIKDLGTSACPPYHLALVIGGTSAEANLKAVKLASAGYYDELPTEGNMGGQAFRDLEWEEKVQLICQESLIGAQFGGKYFTHDVKVIRLPRHAASCPVGIGVSCSADRNIKAKITEEGIFIEALETNPEKFLPAQAPHLEKAVEVDLNQPMADVLKLLSQYPIKTRLKLKGTLIVARDIAHAKIKELLDAGKPMPEYFKNHPVYYAGPAKTPEGMPSGSFGPTTAGRMDSYVNLFQSQGGSMIMLAKGNRSKAVTDACKEFGGFYLGSIGGPAAILAKENIKSVEVVDFEELGMEAVRKIEVVDFPAFIICDDKGNDFFANL | not soluble |
| FLLEIGLEEMPAKYVTSSVLQLEKRVTDWLKDNQIEFKEIKTYSTPRRLTVLVEEMAEEQANRVEEAKGPAKKIALDDEGNWSKAALGFAKSQKVAPEDLTFREIKGVEYIYIKKEVIGEKTTALLPSLEKVVTSMTFPVSMHWGSNDLRYIRPIKWLIAMFGEEIIPFEITGVSTSNTSRGHRFLGKTATINQPSDYPHALLEQFVVVNASERKQAIVEQLRELETMENWQIREDDDLLEEVTNLVEYPTVLAGNFEKEYLELPEEVLITTMKEHQRYFPVFSQEGELLPHFVTVRNGNHENLDTVARGNEKVLRARLSDADFFYQEDLKITIDEAVAKLQNIVFHEKLGTLTEKMERVQKVALMLADYLNWQEEDKQDIIRLTNIYKFDLVTNIVGEFPELQGLMGEKYALLQGEKPAIATAIREHYLPSSAEGVLPQTDLGSLIAIADKLETLIGFFCVNIVPTGSADPFGLRRSAFGAMRIIQANGWDIPMLEVISRIVDMERAEGATELPSADVKKEVQTFLKNRLRVILQGHHIRHDIIDAVIGGDPNV | not soluble |
| APKASLRLGFSEYSRISNLIVLHLRKVEEEEDESALKRSELVNWYLKEIESEIDSEEELINKKRIIEKVIHRLTHYDHVLIELTQAGLKGSTEGSESYEEDPYLVVNPNYLLED | soluble |
| MVFPSEQEQIEKFEKDHVAQHYFEVLRTLISKKSVFAQQVGLKEVANYLGEIFKRVGAEVEIDESYTAPFVMAHFKSSRPDAKTLIFYNHYDTVPADGDQVWTEDPFTLSVRNGFMYGRGVDDDKGHITARLSALRKYMQHHDDLPVNISFIMEGAEESASTDLDKYLEKHADKLRGADLLVWEQGTKNALEQLEISGGNKGIVTFDAKVKSADVDIHSSYGGVVESAPWYLLQALQSLRAADGRILVEGLYEEVQEPNEREMALLETYGQRNPEEVSRIYGLELPLLQEERMAFLKRFFFDPALNIEGIQSGYQGQGVKTILPAEASAKLEVRLVPGLEPHDVLEKIRKQLDKNGFDKVELYYTLGEMSYRSDMSAPAILNVIELAKKFYPQGVSVLPTTAGTGPMHTVFDALEVPMVAFGLGNANSRDHGGDENVRIADYYTHIELVEELIRSYE | soluble |
| MKIGDISIHYLNGGNTKMDGGAMFGVVPKPLWSKQYNANERNQINLPTHPILIQTAQYNLIIDAGIGNGKLSEKQLRNFGVDEESHIIADLANYNLTPKDIDYVLMTHMHFDHAAGLTDQAGHAIFENAIHVVQQDEWHEFIAPNIRSKSTYWDKNKGDYSNKLILFEKHFEPVPGIKMQHSGGHSFGHTIITIESQGDKAVHMGDIFPTTAHKNPLWVTAYDDYPMQSIREKERMIPYFIQQQYWFLFYHDENYFAVKYSDDGENIDAYILRETLVDNNLEHHHHHH | soluble |
| MAEREVRSTAYQLNAARFPLYRDLAGFDFASSEINEALVRQLHRCEFMDQANNVVLVGGPGTGKTHITTALGVRAVEHQCKRVRFFSTVEFVNVLEQEGPRAGQIANRLAHSDLVILNELGYLPFSASGGALLFHLLSTLYGRAPASSSPLKLISASASGLP | not soluble |
| MSLSNIHHLERSLRKLRLTRVGAEWHALEKRALAEGWTPSRYLLTLCNEELLWRESEKLRRYKKEARLPVAKTLSEYDFSQVPELNGAQFRQLCETTDWVDAGENVLLFGASGLGKSHLAAAIVDGVVGQGYRARFYSAGELLQELRKARAQLKLNELLLKLDRYRVIVVDDLGYVKRDSAETGVLFELIAHRYERGSLVITSNHPFSMWGSIFVDETMAVAAADRLIHHGYMFELKGESYRKKTAKAVTSATEGHHHHHH | soluble |
| LRYNLWFGVYDGKEIKLSENFEESFLKAENPSPLPFNVSEVGAKALGKDYYRILRKTALAVSEKMVEKELRREDRYVVALVKALEEIDESINMLNEKLEDIRAVKESEITEKFEKKIRELRELRRDVEREIEEVMEKIAPNMTELVGAKVAAKLLERAGSMERLVRLPASKIQVIGAEKSLYKAFARMKKGKKAKIPKHGIIFLHPFIRTLPKAKRGKMARFLAAKLAIAAKIDYFRGEIDESLYESIRRRYEELRRK | soluble |
| MAGDPMVMLNTHVVECLQACGRCAAACDYCASSCLREGHGADMARCIALDLDCAAACRLCAAMMARESEFSTHMCTLCARICEVCGDECARHEPRHCQECATACHACASACRAMARPLEHHHHHH | soluble |
| SATTIGPNTCSIDDYKPYCCQSMSGSASLGCVVGVIGSQCGASVKCCKDDVTNTGNSFLIINAANCVA | soluble |
| MHNVVFVLGPPGSGKGTICAKIQENLNYVHLSAGDLLRAERQREGSEFGALIESHIKNGSIVPVEITCSLLENAMKACGDAKGFLVDGFPRNEDNLQGWNKQMDGKALVQFVLFLSCPVSICIERCLNRGQGRTDDNEESLKKRVETYNQQTFPIIEHFEKSGLVREVKSERPVDVVYADVEKVFDAANKK | not soluble |
| MGSDKIHHHHHHMKVVKFGGSSLATGNNVNKALNIIKNDSSRQVIVVSAPGKRTDDDIKVTDLLITYAYTSLRSNNYDDTVEKIFRRYELIAQYFDLPESDLTKIKRLLLTLPTYDYPNADYRMATFKAHGERLNAILIAKILNHQGIKTRYLEPKDVGLIVTGTPNNAEVNPETYVNLKRINLKNNEKIIFPGFYGITPSGHIATFSRGGSDITGAILARGFDAELYENFTDVDAIFSANPNIVTNPAPIKKMTYQEMRELSYAGFSVFHDEALIPAIQGEIPVNVKNTNDPEKPGTLIVPEDGFIPKHTITGIAGGKNFAALYLRKYMLNKGAGFTLKLMEIFDRHHVSYEHMPSGIDDLTIIFKKDALSDQLIDVICNEIQTSLNPDQMQWIDDYAITMVVGEGMKDKLTLCASILYPLGEKNISIQMINQGASQISIMIGTRRQDEEEVIKTIYQNFIENR | not soluble |
| MDLSELERDNTGRCRLSSPVPAVCLKEPCVLGVDEAGRGPVLGPMVYAICYCPLSRLADLEALKVADSKTLTENERERLFAKMEEDGDFVGWALDVLSPNLISTSMLGRVKYNLNSLSHDTAAGLIQYALDQNVNVTQVFVDTVGMPETYQARLQQHFPGIEVTVKAKADSLFPVVSAASIFAKVARDKAVKNWQFVENLQDLDSDYGSGYPNDPKTKAWLRKHVDPVFGFPQFVRFSWSTAQAILEKEAEDVIWEDSEAEEDPERPGKITSYFSQGPQTCRPQAPHRYFQERGLEAASSL | soluble |
